From the supplement of paper PMC7877785
± gives the uncertainty stated by the source.

Test: self-splicing fitness, log relative to wild type (ln ratio); higher = more splicing; Tetrahymena group I intron in knt gene, E. coli kanamycin selection, DiMSum; sequences stand for … in CUCUCU…GGAGGGAAAAGUUAUCAGGCAUGCACCUGGUAGCUAGUCUUUAAACCAAUAGAUUGCAUCGGUUUAAAAGGCAAGACCGUCAAAUUGCGGGAAAGGGGUCAACAGCCGUUCAGUACCAAGUCUCAGGGGAAACUUUGAGAUGGCCUUGCAAAGGGUAUGGUAAUAAGCUGACGGACAUGGUCCUAACCACGCAGCCAAGUCCUAAGUCAACAGAUCUUCUGUUGAUAUGGAUGCAGUUCACAGACUAAAUGUCGGUCGGGGAAGAUGUAUUCUUCUCAUAAGAUAUAGUCGGACCUCUCCUUAAUGGGAGCUAGCGGAUGAAGUGAUGCAACACUGGAGCCGCUGGGAACUAAUUUGUAUGCGAAAGUAUAUUGAUUAGUUUUGGAGUACUCGUGGUCG
In short: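 The eight P1ex-region nucleotides of an intron in the knt kanamycin-resistance gene on pET-22b(+) were all randomised and the library put into E. coli BL21(DE3). Six replicate transformations were grown overnight at 37°C or 30°C on LB agar with or without 25 μg/mL kanamycin, together with 100 μg/mL carbenicillin, 50 μM IPTG and 0.2% rhamnose. Colonies were pooled and amplicon-sequenced on an Illumina HiSeq 2500. Fitness from DiMSum is the error-weighted combination of wild-type-normalised replicate fold changes, kanamycin over none.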

Sequence | self-splicing fitness (ln) (30 °C) | self-splicing fitness (ln) (37 °C)
UGUAAGCAAUAUUACGGAGU | -2.24 ± 0.22 | -1.58 ± 0.33
UGUAAGCAAUAUUACGGAUA | -1.38 ± 0.11 | -1.27 ± 0.12
UGUAAGCAAUAUUACGGAUC | -1.45 ± 0.18 | -0.457 ± 0.36
UGUAAGCAAUAUUACGGCAA | -0.056 ± 0.1 | 0.0443 ± 0.12
UGUAAGCAAUAUUACGGCUG | 0.2 ± 0.1 | -0.152 ± 0.11
UGUAAGCAAUAUUACGGGAA | -2.12 ± 0.17 | -2.08 ± 0.18
UGUAAGCAAUAUUACGGGAG | -3.47 ± 0.24 | -1.94 ± 0.25
UGUAAGCAAUAUUACGGGGC | -3.63 ± 0.23 | -3.24 ± 0.25
UGUAAGCAAUAUUACGGUAG | -2.05 ± 0.12 | -1.34 ± 0.13
UGUAAGCAAUAUUACGGUGA | -2.08 ± 0.11 | -0.909 ± 0.13
UGUAAGCAAUAUUACGGUGG | -3.54 ± 0.19 | -1.27 ± 0.13
UGUAAGCAAUAUUACGUAUC | -3.17 ± 0.23 | -2.13 ± 0.24
UGUAAGCAAUAUUACGUCAA | -2.57 ± 0.18 | -0.839 ± 0.16
UGUAAGCAAUAUUACGUCGA | -1.42 ± 0.1 | -0.213 ± 0.12
UGUAAGCAAUAUUACGUCGC | -3.46 ± 0.33 | -1.65 ± 0.2
UGUAAGCAAUAUUACGUGGU | -3.15 ± 0.13 | -3.76 ± 0.27
UGUCAGCAAUAUUACGAACG | -0.137 ± 0.086 | 0.589 ± 0.11
UGUCAGCAAUAUUACGAGCC | -1.74 ± 0.24 | -0.631 ± 0.27
UGUCAGCAAUAUUACGAGCU | -0.801 ± 0.088 | -0.417 ± 0.11
UGUCAGCAAUAUUACGAUAC | -2.92 ± 0.24 | -2.41 ± 0.22
UGUCAGCAAUAUUACGAUCG | 0.238 ± 0.098 | 0.647 ± 0.12
UGUCAGCAAUAUUACGAUGA | 0.232 ± 0.075 | 0.333 ± 0.09
UGUCAGCAAUAUUACGAUGG | -0.3 ± 0.073 | 0.195 ± 0.098
UGUCAGCAAUAUUACGAUGU | -1.36 ± 0.073 | -0.317 ± 0.093
UGUCAGCAAUAUUACGCAGG | -2.52 ± 0.2 | -3.19 ± 0.26

Sequence | self-splicing fitness (ln) (30 °C) | self-splicing fitness (ln) (37 °C)
UGUCAGCAAUAUUACGCAUC | -2.61 ± 0.12 | -1.57 ± 0.11
UGUCAGCAAUAUUACGCCUU | -1.38 ± 0.13 | -0.87 ± 0.14
UGUCAGCAAUAUUACGCGCU | -0.874 ± 0.17 | -0.182 ± 0.17
UGUCAGCAAUAUUACGGACU | -1.36 ± 0.12 | 0.712 ± 0.13
UGUCAGCAAUAUUACGGAGC | – | -2.89 ± 0.43
UGUCAGCAAUAUUACGUAAA | -0.534 ± 0.13 | -0.324 ± 0.16
UGUCAGCAAUAUUACGUAAC | -2.38 ± 0.24 | 0.145 ± 0.26
UGUCAGCAAUAUUACGUGGG | -1.94 ± 0.073 | -0.96 ± 0.082
UGUCAGCAAUAUUACGUGUG | -0.636 ± 0.048 | 0.0859 ± 0.065
UGUGAGCAAUAUUACGACGU | -3.72 ± 0.18 | -2.29 ± 0.16
UGUGAGCAAUAUUACGACUA | -0.569 ± 0.2 | -1.07 ± 0.19
UGUGAGCAAUAUUACGAGAU | -3.75 ± 0.37 | -2.53 ± 0.41
UGUGAGCAAUAUUACGAUCC | -2.29 ± 0.31 | -1.87 ± 0.39
UGUGAGCAAUAUUACGCACU | -2.44 ± 0.16 | -0.665 ± 0.12
UGUGAGCAAUAUUACGCAGA | -2.79 ± 0.29 | -1.83 ± 0.48
UGUGAGCAAUAUUACGCAUC | – | -2.15 ± 0.26
UGUGAGCAAUAUUACGCAUU | -4.49 ± 0.29 | -1.77 ± 0.3
UGUGAGCAAUAUUACGCUUU | -3.5 ± 0.33 | -3.83 ± 0.33
UGUGAGCAAUAUUACGGACU | -2.24 ± 0.22 | -0.378 ± 0.22
UGUGAGCAAUAUUACGGCCG | -0.763 ± 0.15 | 0.477 ± 0.27
UGUGAGCAAUAUUACGGCGG | -2.35 ± 0.2 | -0.738 ± 0.19
UGUGAGCAAUAUUACGGCGU | -3.33 ± 0.3 | -1.92 ± 0.32
UGUGAGCAAUAUUACGGCUU | -2.85 ± 0.27 | -1.81 ± 0.23
UGUGAGCAAUAUUACGGGAU | -4.32 ± 0.41 | -2.17 ± 0.38
UGUGAGCAAUAUUACGGGUA | -2.92 ± 0.2 | -2.86 ± 0.31

Sequence | self-splicing fitness (ln) (30 °C) | self-splicing fitness (ln) (37 °C)
UGUGAGCAAUAUUACGUACU | -1.72 ± 0.17 | 0.399 ± 0.15
UGUGAGCAAUAUUACGUCAU | – | -1.32 ± 0.4
UGUGAGCAAUAUUACGUGGC | – | -1.97 ± 0.4
UGUGAGCAAUAUUACGUUUU | -3.15 ± 0.27 | -2.98 ± 0.37
UGUUAGCAAUAUUACGAACG | -0.101 ± 0.092 | -0.499 ± 0.11
UGUUAGCAAUAUUACGACUG | 0.492 ± 0.095 | 0.167 ± 0.12
UGUUAGCAAUAUUACGCAAG | -3.38 ± 0.37 | -2.13 ± 0.4
UGUUAGCAAUAUUACGCUAA | -2.05 ± 0.4 | –
UGUUAGCAAUAUUACGCUGC | -1.63 ± 0.18 | -2.44 ± 0.32
UGUUAGCAAUAUUACGGACC | 0.127 ± 0.12 | 0.443 ± 0.16
UGUUAGCAAUAUUACGGAGU | – | -2.73 ± 0.27
UGUUAGCAAUAUUACGGCCC | -2.13 ± 0.36 | -1.13 ± 0.41
UGUUAGCAAUAUUACGGCGA | 0.174 ± 0.14 | -0.431 ± 0.15
UGUUAGCAAUAUUACGGCUU | -0.797 ± 0.16 | -0.574 ± 0.19
UGUUAGCAAUAUUACGGGCU | -1.9 ± 0.13 | -1.5 ± 0.17
UGUUAGCAAUAUUACGGUAU | -2.59 ± 0.4 | -1.95 ± 0.28
UGUUAGCAAUAUUACGGUUG | -1.78 ± 0.14 | -1.2 ± 0.15
UGUUAGCAAUAUUACGUAUC | – | -0.937 ± 0.26
UGUUAGCAAUAUUACGUGCU | -1.95 ± 0.13 | -1.51 ± 0.13
UGUUAGCAAUAUUACGUUAA | -1.85 ± 0.27 | -0.838 ± 0.15
UGUUAGCAAUAUUACGUUCC | -2.47 ± 0.29 | -2.03 ± 0.41
UGUUAGCAAUAUUACGUUUC | -3.91 ± 0.46 | -2.06 ± 0.33
UUAAAGCAAUAUUACGAAGG | -0.779 ± 0.14 | -1.09 ± 0.18
UUAAAGCAAUAUUACGACCG | -0.379 ± 0.12 | 0.397 ± 0.16
UUAAAGCAAUAUUACGAGGA | -1.84 ± 0.13 | -0.545 ± 0.16

Sequence | self-splicing fitness (ln) (30 °C) | self-splicing fitness (ln) (37 °C)
UUAAAGCAAUAUUACGAGUG | -0.826 ± 0.058 | -0.0213 ± 0.08
UUAAAGCAAUAUUACGCAUA | -0.633 ± 0.072 | 0.164 ± 0.11
UUAAAGCAAUAUUACGCCCC | -0.451 ± 0.27 | 0.901 ± 0.38
UUAAAGCAAUAUUACGCCCU | -0.437 ± 0.11 | 0.33 ± 0.14
UUAAAGCAAUAUUACGCCUG | 0.63 ± 0.16 | 1 ± 0.17
UUAAAGCAAUAUUACGCUAC | -3.55 ± 0.26 | -1.91 ± 0.2
UUAAAGCAAUAUUACGGAUA | -0.925 ± 0.13 | -0.197 ± 0.16
UUAAAGCAAUAUUACGGCAA | 0.101 ± 0.12 | 0.186 ± 0.16
UUAAAGCAAUAUUACGGCGU | -0.257 ± 0.068 | 0.33 ± 0.09
UUAAAGCAAUAUUACGGGUU | -3.04 ± 0.15 | -1.46 ± 0.13
UUAAAGCAAUAUUACGGUUG | -1.13 ± 0.071 | -0.199 ± 0.089
UUAAAGCAAUAUUACGUAAG | -0.67 ± 0.082 | -0.258 ± 0.11
UUAAAGCAAUAUUACGUAUC | -2.17 ± 0.12 | -1.87 ± 0.16
UUAAAGCAAUAUUACGUCUG | 0.0385 ± 0.075 | 0.255 ± 0.096
UUAAAGCAAUAUUACGUUAG | -0.59 ± 0.095 | -0.125 ± 0.097
UUACAGCAAUAUUACGAAGC | – | -1.41 ± 0.4
UUACAGCAAUAUUACGACAU | -1.971 ± 0.014 | -1.02 ± 0.033
UUACAGCAAUAUUACGACUU | -1.06 ± 0.11 | -0.932 ± 0.11
UUACAGCAAUAUUACGAGCU | -3.55 ± 0.31 | -3.12 ± 0.34
UUACAGCAAUAUUACGAGUA | -1.5 ± 0.14 | -0.933 ± 0.11
UUACAGCAAUAUUACGAUUA | -0.238 ± 0.094 | -0.0645 ± 0.089
UUACAGCAAUAUUACGCAGC | -4.38 ± 0.26 | -3.01 ± 0.16
